Earlier results on one substance are cited in paper PMC4005919.

The data set deals with BID BH3 (Homo sapiens) (UniProt P55957).
Sequence of BID BH3 (Homo sapiens) (P55957 80-99): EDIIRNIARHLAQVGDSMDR

Sequence of BAK (Q16611 2-211): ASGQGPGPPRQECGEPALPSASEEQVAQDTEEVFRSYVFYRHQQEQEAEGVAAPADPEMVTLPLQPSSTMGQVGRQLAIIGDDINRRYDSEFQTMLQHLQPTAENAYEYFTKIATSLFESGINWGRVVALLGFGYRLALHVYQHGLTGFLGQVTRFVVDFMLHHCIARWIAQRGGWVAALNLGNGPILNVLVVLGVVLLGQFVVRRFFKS

Consider BAK (from UniProt Q16611), for which the Kd was 10 µM.
